According to paper PMC6433865:

Columns and labels:
[1] = biological target: T1, C terminus of Hsc70-interacting protein (CHIP) (human), Q9UNE7; experiment: negative-stain electron microscopy, 3D reconstruction; complexes stabilised and isolated by GraFix (10-30% glycerol gradient, 0.15% glutaraldehyde), stained with 2% uranyl acetate, JEOL JEM1010 at 80 kV; atomic structures docked into 19-26 Å volumes; conditions: remark: other sources report otherwise
T1 chain: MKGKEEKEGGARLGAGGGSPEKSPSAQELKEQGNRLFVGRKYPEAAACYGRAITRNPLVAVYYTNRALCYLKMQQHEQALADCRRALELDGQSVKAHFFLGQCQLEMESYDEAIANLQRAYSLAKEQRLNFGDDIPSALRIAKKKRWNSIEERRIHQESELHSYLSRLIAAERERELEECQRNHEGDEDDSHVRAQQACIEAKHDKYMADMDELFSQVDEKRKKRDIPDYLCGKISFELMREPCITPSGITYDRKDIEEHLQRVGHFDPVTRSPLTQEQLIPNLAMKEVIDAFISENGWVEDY

[2] = biological target: T1, C terminus of Hsc70-interacting protein …; experiment: cryo-EM structure; ternary complexes after GraFix, vitrified; Titan Krios 300 kV (Hsp70:p53-TMGST:CHIP, 15 Å) or Talos Arctica 200 kV (Hsp90:p53-TMGST:CHIP, 13 Å); atomic structures docked; conditions: remark: other sources report otherwise

B1: C terminus of Hsc70-interacting protein (CHIP), Q9UNE7 1-303 (enzyme)
chain: MKGKEEKEGGARLGAGGGSPEKSPSAQELKEQGNRLFVGRKYPEAAACYGRAITRNPLVAVYYTNRALCYLKMQQHEQALADCRRALELDGQSVKAHFFLGQCQLEMESYDEAIANLQRAYSLAKEQRLNFGDDIPSALRIAKKKRWNSIEERRIHQESELHSYLSRLIAAERERELEECQRNHEGDEDDSHVRAQQACIEAKHDKYMADMDELFSQVDEKRKKRDIPDYLCGKISFELMREPCITPSGITYDRKDIEEHLQRVGHFDPVTRSPLTQEQLIPNLAMKEVIDAFISENGWVEDY
A stoichiometry N [1] of 2 and a stoichiometry N [2] of 2 were found for B1 in this work.
